Patent US20200247855A1, “THERAPY AND DIAGNOSTICS” (OXFORD UNIVERSITY INNOVATION LIMITED, priority 2017, published 2020)
“Also recorded” adds a separate entry of the source.

T1: CCL18_HUMAN (Homo sapiens, UniProt P55774)
T1 sequence (P55774 21-89): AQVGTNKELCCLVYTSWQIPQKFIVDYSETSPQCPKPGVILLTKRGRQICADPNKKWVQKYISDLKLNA

T2: CCL4L1_HUMAN (Homo sapiens, UniProt Q8NHW4)
T2 sequence (Q8NHW4 24-92): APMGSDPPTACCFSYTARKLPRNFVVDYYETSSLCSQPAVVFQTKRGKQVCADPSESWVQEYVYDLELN

T3: CCL3_HUMAN (Homo sapiens, UniProt P10147)
T3 sequence (P10147 24-92): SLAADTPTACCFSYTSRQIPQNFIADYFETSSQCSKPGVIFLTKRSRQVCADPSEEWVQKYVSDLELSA

T4: CCL4_HUMAN (Homo sapiens, UniProt P13236)
T4 sequence (P13236 24-92): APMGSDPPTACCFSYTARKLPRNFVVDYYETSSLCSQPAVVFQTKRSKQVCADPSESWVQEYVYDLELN

T5: CCL8_HUMAN (Homo sapiens, UniProt P80075)
T5 sequence (P80075 24-99): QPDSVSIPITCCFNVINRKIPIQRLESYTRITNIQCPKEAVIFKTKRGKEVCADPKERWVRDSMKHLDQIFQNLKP

T6: CCL14_HUMAN (Homo sapiens, UniProt Q16627)
T6 sequence (Q16627 20-93): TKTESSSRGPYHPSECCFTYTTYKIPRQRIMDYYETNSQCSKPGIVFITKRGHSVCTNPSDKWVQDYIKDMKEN

T7: CXCL8_HUMAN (Homo sapiens, UniProt P10145)
T7 sequence (P10145 21-99): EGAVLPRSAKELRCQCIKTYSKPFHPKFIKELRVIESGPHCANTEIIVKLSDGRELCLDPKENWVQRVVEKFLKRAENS

T8: CCL5_HUMAN (Homo sapiens, UniProt P13501)
T8 sequence (P13501 24-91): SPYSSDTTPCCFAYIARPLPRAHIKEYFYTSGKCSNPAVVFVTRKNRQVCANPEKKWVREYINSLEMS


Tests used:
CCL18_HUMAN = target: T1, CCL18_HUMAN; experiment: Biolayer interferometry (BLI) binding
Method: (§1) Table 1. Tick CKBPs described in PCT/GB2017/050563 and [17]. Tick peptide sequences isolated in yeast surface display fluorescent-activated cell sorting (FACS) screens using a labelled chemokine. Identity with Evasin-1, 4 or 3 was calculated using BLAST. Abbreviations: IXORI—Ixodes ricinus, RHISA—Rhipicephalus sanguineus, AMBMA—Amblyomma maculatum, AMBPA—Amblyomma parvum, AMBTR—Amblyomma triste, AMBAM—Amblyomma americanum, AMBCA—Amblyomma cajennense, RHIPU—Rhipicephalus pulchellus. Table 2A-C. Binding characteristics of tick CKBPs previously disclosed (PCT/GB2017/050563 and [17]). All members of the human chemokine family[164] are listed in column 1. Binding to human chemokines was determined for 14 tick CKBPs using biolayer interferometry (BLI) with calculated Kd shown as Molar (Moles/Litre). Binding data for 17 other novel tick CKBPs was assayed using yeast surface display[17,166],with positive binding results shown as “YES”. For biolayer interferometry, His-tagged purified tick CKBP was bound to a Ni-NINTA sensor on an OctetRed® 384 system, and then binding to each chemokine listed (with the exception of CCL25, CCL26, CXCL16, CXCL17, CXCL4L1, XCL2) was assayed in a cross-binding screen at a chemokine concentration of 300 nM as described. For those chemokines showing binding to a tick CKBP in the cross-binding screen, binding assays were repeated using different doses of chemokine. Association, equilibrium and dissociation data were analysed using Octet software to create corresponding fitted curves, and used to calculate Kd. For yeast surface display, (YSD) background fluorescence was controlled for by using either an empty vector or by omitting the chemokine (i.e. using streptavidin-Alexa647 alone). An arbitrary threshold of >3 fold over background mean fluorescence intensity was chosen to describe confirmed re-tests. Where binding was detected data are indicated as “YES”. […] For yeast surface display data, empty cells represent chemokines that were not tested. Binding data published in relation to previously described tick CKBPs (Evasins-1, 4 and 3) is also shown for comparison in each of FIGS. 2A-C, with the relevant data obtained from publications: [20-22,32]. Table 3: Neutralisation of human chemokines by tick CKBPs previously disclosed (PCT/GB2017/050563 and [17]). Neutralising activity was determined using a quantitative THP1 cell migration assay in a 96-well Boyden chamber with chemokine in the bottom chamber as described. Cells migrating through to the bottom chamber at 4 hours were counted using flow cytometry in a 96 well plate format. IC50 for neutralisation was determined at the chemokine EC80 dose as determined using a range of tick CKBP concentrations. Data was analysed using GraphPad Prism to determine IC50, which is shown as Molar (Moles/Litre). Empty cells represent experiments not done. Table 4—Other previously described tick CKBPs. Tick CKBPs that were also described in PCT/GB2017/050563 and Singh et al. are indicated in “Notes”. Table 5.—Novel tick CKBPs of the invention. Table 6. […] The peptide sequence prefix indicates the identity, and suffix indicate the tick species as follows: AMBCA, Amblyomma cajennense and IXORI, Ixodes ricinus. […] Certain tick peptides e.g. P1074_IXORI were recovered from screens performed with more than one chemokine. Individual yeast clones recovered from the library were re-tested using a FACS (fluorescence activated cell sorting), experiment. The binding of the peptide to the chemokine was assayed by measuring the percent (%), of yeast cells expressing the given peptide that exceeded a background threshold set by measuring the fluorescence of the yeast library pool treated with streptavidin-[…] alone. When more than one independent yeast clone was isolated for a given peptide-chemokine combination, the mean percent shift was calculated and reported in column 3. […]

CCL7_HUMAN = CCL7_HUMAN (Homo sapiens, UniProt P80098); experiment: Biolayer interferometry (BLI) binding
Sequence of CCL7_HUMAN (P80098 24-99): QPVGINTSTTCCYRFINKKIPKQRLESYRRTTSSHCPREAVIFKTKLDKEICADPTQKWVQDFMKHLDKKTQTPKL
Method: as §1

CCL4L1_HUMAN = target: T2, CCL4L1_HUMAN; experiment: Biolayer interferometry (BLI) binding
Method: as §1

CCL13_HUMAN = CCL13_HUMAN (Homo sapiens, UniProt Q99616); experiment: Biolayer interferometry (BLI) binding
Sequence of CCL13_HUMAN (Q99616 17-98): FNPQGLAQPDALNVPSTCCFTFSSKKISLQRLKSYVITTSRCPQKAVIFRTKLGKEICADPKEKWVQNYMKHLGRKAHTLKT
Method: as §1

CCL3_HUMAN = target: T3, CCL3_HUMAN; experiment: Biolayer interferometry (BLI) binding
Method: as §1

CCL11_HUMAN = CCL11_HUMAN (Homo sapiens, UniProt P51671); experiment: Biolayer interferometry (BLI) binding
Sequence of CCL11_HUMAN (P51671 24-97): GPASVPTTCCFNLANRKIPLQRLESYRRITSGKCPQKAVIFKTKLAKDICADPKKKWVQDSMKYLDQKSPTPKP
Method: as §1

CCL2_HUMAN = CCL2_HUMAN (Homo sapiens, UniProt P13500); experiment: Biolayer interferometry (BLI) binding
Sequence of CCL2_HUMAN (P13500 24-99): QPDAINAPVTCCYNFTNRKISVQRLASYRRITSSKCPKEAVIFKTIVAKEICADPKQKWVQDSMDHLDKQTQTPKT
Method: as §1

CCL4_HUMAN = target: T4, CCL4_HUMAN; experiment: Biolayer interferometry (BLI) binding
Method: as §1

CCL8_HUMAN = target: T5, CCL8_HUMAN; experiment: Biolayer interferometry (BLI) binding; conditions: read-out: Kd, CCL8_HUMAN
Method: as §1

CCL3L1_HUMAN = CCL3L1_HUMAN (Homo sapiens, UniProt P16619); experiment: Biolayer interferometry (BLI) binding
Sequence of CCL3L1_HUMAN (P16619 24-93): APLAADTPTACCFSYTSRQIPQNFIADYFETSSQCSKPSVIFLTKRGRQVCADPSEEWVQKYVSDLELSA
Method: as §1

CCL14_HUMAN = target: T6, CCL14_HUMAN; experiment: Biolayer interferometry (BLI) binding
Method: as §1

CXCL8_HUMAN = target: T7, CXCL8_HUMAN; experiment: Yeast surface display (YSD) FACS binding; parameters: label (chemical); conditions: FACS re-test; mean percent shift where several clones
Method: as §1

CCL5_HUMAN = target: T8, CCL5_HUMAN; experiment: Yeast surface display (YSD) FACS binding
Method: as §1

chemokines = conditions: list of chemokines bound, from the literature [18,20-22]; cited from earlier work

Row | Molecule | Kd (CCL18_HUMAN) [nM] | Kd (CCL7_HUMAN) [nM] | Kd (CCL4L1_HUMAN) [nM] | Kd (CCL13_HUMAN) [nM] | Kd (CCL3_HUMAN) [nM] | Kd (CCL11_HUMAN) [nM] | Kd (CCL2_HUMAN) [nM] | Kd (CCL4_HUMAN) [nM] | Kd (CCL8_HUMAN) [nM] | Kd (CCL3L1_HUMAN) [nM] | Kd (CCL14_HUMAN) [nM] | Chemokines bound in yeast surface display and % cells over threshold fluorescence: CXCL8_HUMAN (CXCL8_HUMAN) | Binding to CCL5_HUMAN, YSD (CCL5_HUMAN) | Previously described chemokine binding (chemokines)
1 | P1180_AMBTR: tick CKBP, Amblyomma triste (protein, Amblyomma triste) EEPKDGYDYTEGCPFVVLGNGTHAKPAGCSHLCNGAPETLDDNMECYNVTEEVAKRMTPDIPYTCWLGWCSKGECKRDNRTEVCYRGSERE | 5.8 | 98 | 20 | 9 | 1.1 | 33 | 53 | 66 | 3.6 | 2.2 | 4.4 | – | – | –
2 | P1128_IXORI: novel CXC-binding tick CKBP, Ixodes ricinus (protein, listed as Ixodes ricinus) KDDEHFSVDYCGMNCTQQEDGSWTACSGRNEECRCYHESGKKNGLCLSTTYIDFSQYGNPSDSDIAAASPRP | – | – | – | – | – | – | – | – | – | – | – | CXCL8_HUMAN 53% | – | –
3 | P1127_IXORI: novel CXC-binding tick CKBP, Ixodes ricinus (protein, listed as Ixodes ricinus) AGKDDEHFSVDYCGMNCTQQEDGSWTACSGRNGECRCYHESGKRSGLCLSTTYIDFSEYGNLSDSDIAAASPRLSMKESH | – | – | – | – | – | – | – | – | – | – | – | CXCL8_HUMAN 43% | – | –
4 | P1182_AMBMA: tick CKBP, Amblyomma maculatum (protein, listed as Amblyomma maculatum) EPKDDNDYGGGCPFVVLGNGTHAKPAGCSHLCNGAPETLDNIECYNVTEEVAKRMTPGIPYACWLGWCNKGECKRGNRTEVCYRGSEEE | 33 | – | 92 | 56 | 5.4 | 28 | 74 | 63 | 29 | 9.5 | 50 | – | – | –
5 | P1170_IXORI: novel CXC-binding tick CKBP, Ixodes ricinus (protein, listed as Ixodes ricinus) LGDEDQLFSVEYCGTNCTQQDDGKWTPCSGKNGKCKCYHEDGKRYGLCLYTEYTDFSQYPNPEGSEIENTRPRP | – | – | – | – | – | – | – | – | – | – | – | CXCL8_HUMAN 81% | – | –
6 | P983_AMBPA: tick CKBP; named P983_AMBCA in Table 1 (protein, Amblyomma cajennense) EDTGTEDDFDYGNTGCPFPVLGNYKSNMTKPVGCKNKCGSGYEVLNDTTPCYVIDQKVFNNMVPLRQYSKCPLGFCENGECKPNDQAEDCYKGREEQK | – | 32 | – | 17 | 3.5 | 21 | 14 | 8 | 7 | 2.1 | 81 | – | – | –
7 | P1181_AMBMA: tick CKBP, Amblyomma maculatum (protein, listed as Amblyomma maculatum) EEREDDNDYGGGCPFVVLGNGTHAKPAGCSHLCNGAPETLDNIECYNVTEEVAKRMTPDIPYTCWLGWCSKGECKRDNRTEVCYRGSERE | 10 | 120 | 35 | 19 | 2.2 | 20 | 74 | 53 | 14 | 3.3 | 47 | – | – | –
8 | P1063_AMBTR: tick CKBP, Amblyomma triste (protein, Amblyomma triste) QSEVGKNVPGCGDTETLEAPPQEKPPYYEYKDEEGCTQKVLESWFQAGERSTGRGQKKRGHGRRPSRVLRTVDCRKNCTVGITALPDGHLCLVPRGDPFTRGGAIKYGCYLGDCASGHCQHRYETVSCRLPAPDTTAKPYYVTPEK | – | – | – | – | – | – | – | – | – | – | – | – | YES (An arbitrary threshold of >3 fold over background mean fluorescence intensity was chosen to describe confirmed re-tests. Where binding was detected data are indicated as “YES”) | –
9 | P1183_AMBTR: tick CKBP, Amblyomma triste (protein, Amblyomma triste) EAPKDDFEYDGGCPFVVLDNGTHVKPAGCSHLCNGAPETLDNIECYNVTEEVAKRMTPGIPYACWLGWCSKGECKRDNRTEVCYRGSEEE | – | 5.4 | 48 | 5.7 | – | 8.5 | 12 | 78 | 1100 | – | – | – | – | –
10 | AAM-01: previously described tick CKBP, Amblyomma americanum (protein, listed as Amblyomma americanum) ESEGSVSTETEVISYEDDCQDDNSTCFIQTLNTTGEPRPVGCILECENSTQRLPNGTECLGLPGLAAVKMQRNVSYTCSVGLCNGEGVCDRTGLWIGCWTNTPPPNSTNVTTKPPTTTTASPGTG | – | – | – | – | – | – | – | – | – | – | – | – | – | CCL11, CCL24,; also recorded: CCL26, CCL2,; also recorded: CCL8, CCL7
11 | RPU-02: previously described tick CKBP, Rhipicephalus pulchellus (protein, listed as Rhipicephalus pulchellus) CEVQNTTLAEEDYDTGCGYNIVITKNKTLVVNCTMDCQPKMLMNESEPCLFNSSVPYDHMQPHHNYTCMEGICKNGTCVSPSNNITCWLPPPPVRYYPNETMVTSTIEPEA | – | – | – | – | – | – | – | – | – | – | – | – | – | CCL11, CCL24,; also recorded: CCL26, CCL2,; also recorded: CCL8, CCL7
